According to IntAct's records for PubMed 17805301:

B1: CREB-regulated transcription coactivator 2 (Mus musculus), Q3U182 (parent)
chain: MATSGANGPGSATASASNPRKFSEKIALQKQRQAEETAAFEEVMMDIGSTRLQAQKLRLAYTRSSHYGGSLPNVNQIGCGLAEFQSPLHSPLDSSRSTRHHGLVERVQRDARRMVSPLRRYPRHIDSSPYSPAYLSPPPESGWRRMMPWGNLPAEKGQLFRLPSALNRTSSDSALHTSVMNPNPQDTYPGPTPPSVLPSRRGGGFLDGEMDAKVPAIEENVVDDKHLLKPWDAKKLSSSSSRPRSCEVPGINIFPSPDQPANVPVLPPAMNTGGSLPDLTNLHFPPPLPTPLDPEETVYPSLSGGNSTTNLTHTMTHLGISGGLGLGPSYDVPGLHSPLSHPSLQSSLSNPNLQASLSSPQPQLQGSHSHPSLPASSLAHHALPTTSLGHPSLSAPALSSSSSSSSTSSPVLSAPPYPASTPGASPRHRRVPLSPLSLPAGPADARRSQQQLPKQFSPTMSPTLSSITQGVPLDTSKLPTDQRLPPYPYSPPSLVIPTHPPTPKSLQQLPSQACLVQPSGGQPPGRQPHYGALYPPGSSGHGQQPYHRPINDFSLGNLEQFNMESPSTSLVLDPPAFSEGPGFLGSEGSMSGPQDPHVLNHQNLTHCSRHGSGPNIILTGDSSPGFSKEIAAALAGVPGFEVSASGLELGLGLEDELRMEPLGLEGLTMLSDPCALLPDPAVEDSFRSDRLQ

Variants of: B1
Settings: with cop1_mouse Cop1, Q9R1A8
cop1_mouse Cop1, Q9R1A8, sequence (Q9R1A8 whole entry): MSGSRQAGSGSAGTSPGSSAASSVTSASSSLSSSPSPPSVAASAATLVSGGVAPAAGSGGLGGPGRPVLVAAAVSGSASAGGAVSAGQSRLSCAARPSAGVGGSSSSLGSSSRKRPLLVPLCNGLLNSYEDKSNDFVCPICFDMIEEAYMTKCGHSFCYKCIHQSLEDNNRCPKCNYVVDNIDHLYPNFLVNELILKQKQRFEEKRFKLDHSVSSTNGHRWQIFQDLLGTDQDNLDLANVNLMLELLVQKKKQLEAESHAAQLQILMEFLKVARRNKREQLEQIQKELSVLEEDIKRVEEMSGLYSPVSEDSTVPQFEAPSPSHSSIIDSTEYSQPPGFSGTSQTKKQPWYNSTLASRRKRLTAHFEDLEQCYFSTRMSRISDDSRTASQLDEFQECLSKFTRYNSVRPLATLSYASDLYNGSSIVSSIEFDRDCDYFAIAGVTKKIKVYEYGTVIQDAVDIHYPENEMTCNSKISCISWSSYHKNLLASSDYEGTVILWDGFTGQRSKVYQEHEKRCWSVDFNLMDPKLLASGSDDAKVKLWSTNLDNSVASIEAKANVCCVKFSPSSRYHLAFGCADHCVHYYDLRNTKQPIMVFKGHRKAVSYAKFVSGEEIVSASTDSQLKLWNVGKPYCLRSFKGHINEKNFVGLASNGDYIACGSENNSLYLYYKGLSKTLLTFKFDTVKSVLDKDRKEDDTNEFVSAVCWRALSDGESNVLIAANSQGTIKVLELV

| effect of a mutation on the interaction | Variant |
| --- | --- |
| disrupting interaction strength | V214A;P215A |
